Data on six molecules can be found in publication PMC10573625, “Interaction of VvDELLA2 and VvCEB1 Mediates Expression of Expansion-Related Gene during GA-Induced Enlargement of Grape Fruit”.

Data set [1] deals with T1, VvCEB1 (UniProt I6QS36 1-270).
T1 sequence: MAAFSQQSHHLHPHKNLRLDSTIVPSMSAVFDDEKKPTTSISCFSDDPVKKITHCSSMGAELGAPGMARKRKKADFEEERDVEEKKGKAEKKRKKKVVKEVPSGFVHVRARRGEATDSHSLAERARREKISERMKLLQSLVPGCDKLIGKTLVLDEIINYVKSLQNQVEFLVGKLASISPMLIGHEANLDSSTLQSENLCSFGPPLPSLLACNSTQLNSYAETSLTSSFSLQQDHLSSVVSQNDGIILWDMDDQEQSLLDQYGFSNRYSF
Briefly: EMSA; Binding buffer, salt, pH and temperature not stated; Beyotime chemiluminescent biotin-labelled nucleic acid detection kit; probes annealed at 72 C for 30 min. The following applies: protein: recombinant; tags: His (pET-30a(+)); chain copies: 2; label: 5'-biotin; blunt.

Data set [2] deals with T1, VvCEB1. Description: competition; unlabelled competitor against biotin probe N4; band significantly weakened; Binding buffer, salt, pH and temperature not stated; Beyotime chemiluminescent biotin-labelled nucleic acid detection kit; probes annealed at 72 C for 30 min. The following applies: protein: recombinant; tags: His (pET-30a(+)); chain copies: 2; blunt.
The target of data set [3] is T1, VvCEB1. Description: EMSA; band disappeared completely with mutated probe; Binding buffer, salt, pH and temperature not stated; Beyotime chemiluminescent biotin-labelled nucleic acid detection kit; probes annealed at 72 C for 30 min. The following applies: protein: recombinant; tags: His (pET-30a(+)); chain copies: 2; blunt.
In data set [4] the target is T1, VvCEB1. Briefly: competition; unlabelled competitor against biotin probe N1; band significantly weakened; Binding buffer, salt, pH and temperature not stated; Beyotime chemiluminescent biotin-labelled nucleic acid detection kit; probes annealed at 72 C for 30 min. The conditions noted are these: protein: recombinant; tags: His (pET-30a(+)); chain copies: 2; 5' overhang 1 nt as printed.

Substitutions are numbered along the chain they refer to.

B1: PVvEXPA11-biotin (dsDNA)
DNA 1: CTACTTGCAGAGATCACATGTGAGGCTGTTGCATT
DNA 2: AATGCAACAGCCTCACATGTGATCTCTGCAAGTAG
Take B1: the binding result with VvCEB1 [1] is “binds”.

B2: PVvEXPA11 (unlabelled competitor) (dsDNA)
DNA 1: B1 DNA 1
DNA 2: B1 DNA 2
As to B2, the binding result in the data set with VvCEB1 [2] is on record as “binds”.

B3: PVvEXPA11-mut (dsDNA)
DNA 1: B1 DNA 1 with G20T, G22T
DNA 2: B1 DNA 2 with C14A, C16A
For B3, in the data set with VvCEB1 [3], the binding result was “no binding”.

B4: PVvEXPA8-biotin (dsDNA)
DNA 1: TGGTAGTCTAACTTGAACAAAACATATGCATGTGCAG
DNA 2: CTGCACATGCATATGTTTTGTTCAAGTTAGACTACCA
Regarding B4, the binding result with VvCEB1 [1] was “binds”.

B5: PVvEXPA8 (unlabelled competitor) (dsDNA)
DNA 1: TTGGTAGTCTAACTTGAACAAAACATATGCATGTGCAG
DNA 2: B4 DNA 2
With B5, in the data set with VvCEB1 [4], the binding result is on record as “binds”.

B6: PVvEXPA8-mut (dsDNA)
DNA 1: B4 DNA 1 with G32T, G34T
DNA 2: B4 DNA 2 with C4A, C6A
Consider B6, for which, in the data set with VvCEB1 [3], the binding result was “no binding”.
